Measured values reported in the Human Domainome abundance scans (Beltran et al. 2025).
± gives the uncertainty stated by the source.

B1: Glucocorticoid receptor, residues 419 to 494; numbered along this chain, P04150 (parent)
chain: KLCLVCSDEASGCHYGVLTCGSCKVFFKRAVEGQHNYLCAGRNDCIIDKIRRKNCPACRYRKCLQAGMNLEARKTK

Variants of: B1
Assay: abundance fitness (aPCA) (normalised: wild type 0, dead -1); higher = more abundant; growth selection in yeast, the domain comes from the species named
Details: Homo sapiens

Point of comparison: KLCLVCSDEASGCHYGVLTCGSCKVFFKRAVEGQHNYLCAGRNDCIIDKIRRKNCPACRYRKELQAGMNLEARKTK [C63E], abundance fitness -0.871 ± 0.11. Against it:
- KLCLVCSDEASGCHYGVLGCGSCKVFFKRAVEGQHNYLCAGRNDCIIDKIRRKNCPACRYRKCLQAGMNLEARKTK [T19G] — higher, -0.393 ± 0.044
- KLFLVCSDEASGCHYGVLTCGSCKVFFKRAVEGQHNYLCAGRNDCIIDKIRRKNCPACRYRKCLQAGMNLEARKTK [C3F] — within error, -0.719 ± 0.29
- KLCLVCSDEASGCHYGVLTCGSCKVCFKRAVEGQHNYLCAGRNDCIIDKIRRKNCPACRYRKCLQAGMNLEARKTK [F26C] — within error, -0.636 ± 0.17
- KLCLVCSDEASGCHYGVSTCGSCKVFFKRAVEGQHNYLCAGRNDCIIDKIRRKNCPACRYRKCLQAGMNLEARKTK [L18S] — higher, 0.038 ± 0.05
- KLCLVCSDEASGCHYGVPTCGSCKVFFKRAVEGQHNYLCAGRNDCIIDKIRRKNCPACRYRKCLQAGMNLEARKTK [L18P] — higher, -0.004 ± 0.055
- KLCLVCSDEASGCHYGVLTCGSCKVFFKRAVEGQHNYLCAGRNDCIIDKIRRKNCPACRYRKCLQAGMNLIARKTK [E71I] — higher, -0.016 ± 0.065
- KLCLVCSDEASGCHYGVLTCGSCKVFFKRAVEGQHNYLCAGRNDCIIDKIRRKNCPACRYGKCLQAGMNLEARKTK [R61G] — higher, -0.063 ± 0.031
- KLCLVCSAEASGCHYGVLTCGSCKVFFKRAVEGQHNYLCAGRNDCIIDKIRRKNCPACRYRKCLQAGMNLEARKTK [D8A] — higher, 0.037 ± 0.039
- KLCLVCSDEASGCHYGVLTCGSCKVFFKRAVEGQHNYLCASRNDCIIDKIRRKNCPACRYRKCLQAGMNLEARKTK [G41S] — higher, -0.031 ± 0.039
- KLCLVCSDEASGCHYGVLTCGSCKVFFKRAVEGQHNYLCAGRNDCIIDKIRRKNCPACRYRKCLQAGMNLEARKCK [T75C] — higher, -0.075 ± 0.061
- KLCLVCSDEAQGCHYGVLTCGSCKVFFKRAVEGQHNYLCAGRNDCIIDKIRRKNCPACRYRKCLQAGMNLEARKTK [S11Q] — higher, 0.047 ± 0.053
- KLCLVCSDEASGCHYGVLTCGSCKVFFKRAVEGQHNYLCAGRTDCIIDKIRRKNCPACRYRKCLQAGMNLEARKTK [N43T] — higher, -0.134 ± 0.046
- KLCLVCSDEASGCHYGVLTCGSCKVFFKRAVEGQHNYLCAGRNDCIIDKIRRKNCPACRYRKCLQAGMNLEARKAK [T75A] — higher, 0.029 ± 0.044
- KLCLVCSDEASGCHYGVLTCGSCKVFFKRAVEGQHNYLCAGRNDCIIDKIRRKNCPACVYRKCLQAGMNLEARKTK [R59V] — within error, -0.783 ± 0.082
- KLCLVCSDEASGCHYGVLTCGSCKVFFKRAVEGQHNYLCAGRNDCIIDKIRRKNCPACRYRKCLQAFMNLEARKTK [G67F] — higher, -0.447 ± 0.12
- KLCLVCSDELSGCHYGVLTCGSCKVFFKRAVEGQHNYLCAGRNDCIIDKIRRKNCPACRYRKCLQAGMNLEARKTK [A10L] — higher, -0.066 ± 0.036
- KLCLVCCDEASGCHYGVLTCGSCKVFFKRAVEGQHNYLCAGRNDCIIDKIRRKNCPACRYRKCLQAGMNLEARKTK [S7C] — higher, -0.046 ± 0.072
- KLCLVCSDEASGCHYGVLTCGSCKVFFKRAVEGQHNYLCAGRNDCIIDKIRRKCCPACRYRKCLQAGMNLEARKTK [N54C] — higher, -0.136 ± 0.062
- KLCLVCSDEASGCHYGVLTCGSCKVFFKRADEGQHNYLCAGRNDCIIDKIRRKNCPACRYRKCLQAGMNLEARKTK [V31D] — higher, -0.219 ± 0.084
- KLCLVCSDEASGCHYGVLTCGSCKVFFKRAVEGQHNYLCAGRNDCIIDKIRRKNCPKCRYRKCLQAGMNLEARKTK [A57K] — higher, -0.06 ± 0.047
- KLCLVCSDEASGCHYGVLTCGSCKVFFKRAVEGQHNYLCAGRNDCIIDKIRRKNCPAVRYRKCLQAGMNLEARKTK [C58V] — within error, -0.903 ± 0.11
- KLCLVCSDEASGCHYGVLTCGSCKVFFKRAVEGQHNYLCAGRNDCTIDKIRRKNCPACRYRKCLQAGMNLEARKTK [I46T] — higher, 0.029 ± 0.049
- KLCLVCSDEASGCHYGVLTCGSCKVFFKRAVEGQHNYLCAGRNDCIIDKIRRKNCPACRYRKCLQCGMNLEARKTK [A66C] — higher, -0.037 ± 0.048
- KLCLVCSDEASGCHYGVLTCGSCKVFFKRAVEGQHNYLCAGRNDCIIDKIRRKNCPACRYRKCLQAGMNLGARKTK [E71G] — higher, -0.009 ± 0.032
- KLCLVCSDEASGCHYGVLTCGSCKVFFKRAVEGQHNYLCAGRNDCIIDKIRRKNCPACRYRKCLQMGMNLEARKTK [A66M] — higher, -0.031 ± 0.049
- KLCLVCSDEASGCHYGVLTCGSCKVFFKRAVEGQHNYLCAGRNDCIIDKIRRKNCPACRYRKCLQAGANLEARKTK [M68A] — higher, -0.377 ± 0.06
- KLCLVCSDEASGCHYGVLTCGSCKVFFKRAVEGQHNYLCAGRNDCIIDKIRRKNCPACRPRKCLQAGMNLEARKTK [Y60P] — within error, -0.724 ± 0.12
- KLCLVCSDEASGVHYGVLTCGSCKVFFKRAVEGQHNYLCAGRNDCIIDKIRRKNCPACRYRKCLQAGMNLEARKTK [C13V] — higher, 0.015 ± 0.035
- KLCLVCSDEASGCHYGVLTCGSCKVFFKRAVEGQHNYLCAGRNDCIIDKIRRKNCPACRYRKCLQVGMNLEARKTK [A66V] — higher, 0.021 ± 0.033
- KLCLVCSDEASGCHYGVLTCGSCKVFFKRAVEWQHNYLCAGRNDCIIDKIRRKNCPACRYRKCLQAGMNLEARKTK [G33W] — higher, -0.135 ± 0.038
- KLCLVCSDEASGCHYGVLTCGSCKVFFKRAVEGQHNYLCAGRNDCIIDKIRRKNCPACRYRKCLQAGMNLEAPKTK [R73P] — higher, -0.007 ± 0.048
- KLCLVCSDEASGCHYGVLTCGSCKVFFKRAVEGQHNYLCAVRNDCIIDKIRRKNCPACRYRKCLQAGMNLEARKTK [G41V] — higher, -0.051 ± 0.035
- KLCLVCSVEASGCHYGVLTCGSCKVFFKRAVEGQHNYLCAGRNDCIIDKIRRKNCPACRYRKCLQAGMNLEARKTK [D8V] — higher, -0.219 ± 0.039
- KLCLVCSDEASGCHYGVLTCGSCKVFFKRAVEGQHNYLFAGRNDCIIDKIRRKNCPACRYRKCLQAGMNLEARKTK [C39F] — within error, -0.603 ± 0.16
- KLCLVCSDEASGCHYGVLTCGSCKVFFKRAKEGQHNYLCAGRNDCIIDKIRRKNCPACRYRKCLQAGMNLEARKTK [V31K] — higher, -0.078 ± 0.056
